# Changes are numbered by the printed parent chain.
# B1: Kj12B-^CDD peptide (C-terminal docking domain of Kj12B) (peptide)
# peptide: LLKEKRKHFQAEQNSSQEYLRGEI
# modifications: Limits taken from PDB 6EWU (isolated NDD). Residue 1 is Gly as in the entity, possibly a SUMO-cleavage/cloning replacement of the native Met. In vivo, the variant was in full-length Kj12C.
# B2: Kj12B-^NDD (N-terminal docking domain of Kj12B) (domain or fragment)
# chain: MKNAAKIVNEALNQGITLFVSDNKLKYKTNRDSIPSELLEEWKQHKQELIDFLTQLESEEES
# B3: Kj12A-^NDD (N-terminal docking domain of Kj12A) (domain or fragment)
# chain: MKNAAQIVDEALNQGITLFVADNRLQYETSRDNIPEELLNEWKYYRQDLIDFLQQLDAKEETQ
# B4: Kj12C-^NDD (N-terminal docking domain of Kj12C) (domain or fragment)
# chain: GIDAAQIVDEALEQGITLFVVNNRLQYETSRDSIPTELLNKWKQHKQELIDFLNQLDSEEQTK
# Key:
# Assay in all cases: ITC
# [1] = target: T1, Kj12C-^NDD Q26K, E28A (modified Kj12C-^NDD) (Xenorhabdus stockiae KJ12.1)
# T1 chain: B4 chain with Q26K, E28A
# [2] = target: Kj12A-^CDD peptide (C-terminal docking domain of Kj12A) (Xenorhabdus stockiae KJ12.1)
# [3] = target: Kj12B-^CDD_(short) peptide G1566A (printed as G1565 replaced with alanine) (Xenorhabdus stockiae KJ12.1)
# [4] = target: Kj12B-^CDD_(short) peptide L1564A (Xenorhabdus stockiae KJ12.1, L1564A (stands in the printed letters))
# [5] = target: Kj12B-CDDshort R1565E peptide (Xenorhabdus stockiae KJ12.1, R1565E (stands in the printed letters))
binder,measurement,setting,value
B1,Kd,[1],80 µM
B2,Kd,[2],> 100 µM
B3,Kd,[2],> 100 µM
B4,Kd,[3],> 100 µM
same,Kd,[4],> 100 µM
same,Kd,[5],> 100 µM
